Assay [1] concerns the target 459C full-length gp160 Env on SHIV (HIV-1 clade C, isolate 459C). Nature of the assay: cell-based or functional assay.
The target of assay [2] is 405C full-length gp160 Env on SHIV (HIV-1 clade C, isolate 405C). Nature of the assay: cell-based or functional assay.
Assay [3] has as its target 405C gp140 trimer (405C gp140-foldon, gp140Fd) (HIV-1 clade C, isolate 405C). Nature of the assay: SPR; IgG captured on protein A, trimer flowed over.
Assay [4] shares this target. Nature of the assay: SPR (Example 8); IgG captured on protein A, trimer flowed over.
The target is the same in assay [5]. Kind of assay: SPR; IgG captured on protein A, Env flowed over; 1:1 model.
The target of assay [6] is 939C gp140 trimer (939C gp140-foldon, gp140Fd) (HIV-1 clade C, isolate 939C). Described as above.
Assay [7] has as its target 939C gp120 monomer (HIV-1 clade C, isolate 939C). The assay is described as above.
In assay [8] the target is 459C gp140 trimer (459C gp140-foldon, gp140Fd) (HIV-1 clade C, isolate 459C). The description is as above.
Assay [9] has as its target 459C gp120 monomer (HIV-1 clade C, isolate 459C). The assay is described as above.
In assay [10] the target is 405C gp120 monomer (HIV-1 clade C, isolate 405C). Described as above.
The target of assay [11] is 405C gp140 trimer (405C gp140-foldon, gp140Fd) (HIV-1 clade C, isolate 405C). Nature of the assay: SPR; 17b IgG captured on protein A, trimer at 1000 nM with against without bound CD4.
The target in assay [12] is 939C gp140 trimer (939C gp140-foldon, gp140Fd) (HIV-1 clade C, isolate 939C). Described as above.
The target of assay [13] is 459C gp140 trimer (459C gp140-foldon, gp140Fd) (HIV-1 clade C, isolate 459C). Described as above.
The target of assay [14] is 405C gp140 trimer (405C gp140-foldon, gp140Fd) (HIV-1 clade C, isolate 405C). Kind of assay: SPR; 3,500 RU IgG captured on protein A, Env flowed over; 1:1 model.
Assay [15] deals with 939C gp140 trimer (939C gp140-foldon, gp140Fd) (HIV-1 clade C, isolate 939C). The assay is described as above.
For assay [16], the target named is 459C gp140 trimer (459C gp140-foldon, gp140Fd) (HIV-1 clade C, isolate 459C). The assay is described as above.
Assay [17] has as its target 405C gp140 trimer (405C gp140-foldon, gp140Fd) (HIV-1 clade C, isolate 405C). Kind of assay: SPR; 4,500 RU IgG captured on protein A, Env flowed over.
Assay [18] has as its target 939C gp140 trimer (939C gp140-foldon, gp140Fd) (HIV-1 clade C, isolate 939C). The description is as above.
Assay [19] concerns the target 459C gp120 monomer (HIV-1 clade C, isolate 459C). Nature of the assay: SPR; IgG captured on protein A, Env flowed over; 1:1 model (monomer rates are rough estimates).
In assay [20] the target is 405C gp120 monomer (HIV-1 clade C, isolate 405C). The description is as above.
Assay [21] concerns the target 405C gp140 trimer (405C gp140-foldon, gp140Fd) (HIV-1 clade C, isolate 405C). Kind of assay: SPR; CD4 coupled to CM5 chip, Env flowed over; 1:1 model.
In assay [22] the target is 939C gp140 trimer (939C gp140-foldon, gp140Fd) (HIV-1 clade C, isolate 939C). The assay is described as above.
Assay [23] has as its target 939C gp120 monomer (HIV-1 clade C, isolate 939C). Described as above.
For assay [24], the target named is 459C gp140 trimer (459C gp140-foldon, gp140Fd) (HIV-1 clade C, isolate 459C). The assay is described as above.
In assay [25] the target is 459C gp120 monomer (HIV-1 clade C, isolate 459C). Described as above.
Assay [26] addresses 405C gp120 monomer (HIV-1 clade C, isolate 405C). Nature of the assay: SPR; CD4 coupled to CM5 chip, Env flowed over; 1:1 model; 405C gp120 monomer as analyte.
For assay [27], the target named is 405C gp140 trimer (405C gp140-foldon, gp140Fd) (HIV-1 clade C, isolate 405C). Nature of the assay: SPR; CD4 coupled to CM5 chip, Env flowed over; 1:1 model; 405C gp140 trimer as analyte.

Here are results for 14 substances from patent publication US20160243215A1.

pKd: −log10 of the molar value.

As for 2F5 IgG (antibody), the IC50 Titers (TZM.bl cells, ug/ml) in assay [1] and in [2] was over 50 µg/mL in each case.
Consider 2G12 IgG (antibody), for which the IC50 Titers (TZM.bl cells, ug/ml) in assay [1] and in [2] was over 50 µg/mL each time.
Regarding 3BNC117 IgG (antibody), the IC50 Titers (TZM.bl cells, ug/ml) in [1] was found to be 5.97 µg/mL; in assay [2] it was 4.94 µg/mL. The same substance had a fold lower magnitude of binding than 459C and 939C trimers in assay [3] of 5 fold. In addition, the fold lower magnitude of binding than Env 459C and 939C trimers in [4] was 5 fold. Further, the pKd in assay [5] is 7.11; in assay [6], 7.57; in assay [7] it was 6.76; in assay [8], 8.91; in assay [9], 7.02; in assay [10], 7.07. Further, the koff in assay [5] amounted to 0.000322 s⁻¹; in [6] it was 0.000224 s⁻¹; in [7] it was 0.000961 s⁻¹; in assay [8], 1.04e-05 s⁻¹; in assay [9] it was 0.0005 s⁻¹; in assay [10] it was 0.00042 s⁻¹. The association rate constant (kon) in assay [5] came to 4110 M⁻¹ s⁻¹; in [6] it was 8330 M⁻¹ s⁻¹; in assay [7] it was 6450 M⁻¹ s⁻¹; in [8], 8500 M⁻¹ s⁻¹; in [9], 6130 M⁻¹ s⁻¹; in [10], 4900 M⁻¹ s⁻¹.
With 4E10 IgG (antibody), the IC50 Titers (TZM.bl cells, ug/ml) in assay [1] was over 50 µg/mL; in assay [2], 18.2 µg/mL.
Regarding 17b IgG (antibody), the fold increase in magnitude of binding when the trimer is bound to CD4 in assay [11], in assay [12] and in assay [13] was 4 fold in each case.
Turning to PG9 IgG (antibody), the IC50 Titers (TZM.bl cells, ug/ml) in assay [1] is over 50 µg/mL; in assay [2] it was 17.4 µg/mL. The pKd in [14] is 6.47; in assay [15], 6.80; in assay [16], 6.35. Further, the results for the koff in [14], in [15] and in assay [16] were 0.000662 s⁻¹, 0.00126 s⁻¹ and 0.0032 s⁻¹, respectively. Further, the kon in assay [14] came out at 1970 M⁻¹ s⁻¹; in [15] it was 8010 M⁻¹ s⁻¹; in [16], 7150 M⁻¹ s⁻¹.
Take PG16 IgG (antibody): the IC50 Titers (TZM.bl cells, ug/ml) in [1] turned out to be 6.7 µg/mL. Also, the IC50 Titers (TZM.bl cells, ug/ml) in assay [2] was 2.05 µg/mL. For the same substance, in assay [17], the negative-log Kd (pKd) was 5.84 and the dissociation rate constant (koff) turned out to be 0.00151 s⁻¹. In assay [18], this substance gave a pKd of 5.90, a koff of 0.00286 s⁻¹ and a kon of 2410 M⁻¹ s⁻¹.
Consider PGT121 IgG (antibody), for which the negative logarithm of the Kd (pKd) in assay [19] is 6.91; in assay [20], 7.19; in assay [5], 7.97; in [6], 7.59; in assay [8] it was 8.25. Also, the koff is 0.000824 s⁻¹ in assay [19]; 0.000492 s⁻¹ in [20]; 0.000104 s⁻¹ in [5]; 0.00043 s⁻¹ in [6]; 8.73e-05 s⁻¹ in [8]. For the same substance, the kon in assay [19] was 6720 M⁻¹ s⁻¹; in [20] it was 7670 M⁻¹ s⁻¹; in [5] it was 9780 M⁻¹ s⁻¹; in assay [6], 16700 M⁻¹ s⁻¹; in assay [8], 15700 M⁻¹ s⁻¹.
On to PGT126 IgG (antibody), for which the negative-log Kd (pKd) in [19] was 7.38; in assay [20], 7.42; in assay [5] it was 8.01; in assay [6] it was 8.18; in assay [8], 8.08. Moreover, the koff was 0.000592 s⁻¹ in assay [19]; 0.0012 s⁻¹ in assay [20]; 0.000282 s⁻¹ in assay [5]; 0.000232 s⁻¹ in assay [6]; 0.000243 s⁻¹ in assay [8]. Also, the kon in [19] was 14800 M⁻¹ s⁻¹; in assay [20], 31400 M⁻¹ s⁻¹; in [5], 28700 M⁻¹ s⁻¹; in assay [6], 35000 M⁻¹ s⁻¹; in [8], 29500 M⁻¹ s⁻¹.
With PGT128 IgG (antibody), the IC50 Titers (TZM.bl cells, ug/ml) in assay [1] is 0.65 µg/mL; in [2], 45.9 µg/mL.
As for “Soluble two-domain CD4 (from UniProt P01730 26-208) (receptor)”, the koff in assay [21] is 0.000196 s⁻¹; in assay [22] it was 0.000206 s⁻¹; in assay [23], 0.00031 s⁻¹; in assay [24] it was 9.89e-05 s⁻¹; in [25] it was 0.00049 s⁻¹; in [26], 0.000327 s⁻¹. For the same substance, the kon in assay [21] stood at 15400 M⁻¹ s⁻¹; in assay [22] it was 16500 M⁻¹ s⁻¹; in [23], 19500 M⁻¹ s⁻¹; in [24] it was 23700 M⁻¹ s⁻¹; in [25], 18200 M⁻¹ s⁻¹; in assay [26] it was 5560 M⁻¹ s⁻¹. Also, the negative logarithm of the Kd (pKd) in assay [22] is 7.90; in assay [23], 7.80; in assay [24] it was 8.38; in [25] it was 7.57; in assay [27] it was 7.91.
As for VRC01 IgG (antibody), the figures for the IC50 Titers (TZM.bl cells, ug/ml) in assay [1] and in assay [2] were 11.9 µg/mL and 13.3 µg/mL, respectively. Besides, the fold lower magnitude of binding than 459C and 939C trimers in assay [3] came out at 5 fold. The fold lower magnitude of binding than Env 459C and 939C trimers in assay [4] was determined as 5 fold. For the same substance, the pKd in assay [5] was 8.13; in assay [6], 8.45; in [7] it was 7.24; in assay [8], 8.12; in [9], 6.48; in assay [10], 7.45. For the same substance, the koff was determined as 4.52e-05 s⁻¹ in assay [5]; 1.55e-05 s⁻¹ in [6]; 0.000249 s⁻¹ in [7]; 4.75e-05 s⁻¹ in [8]; 0.00109 s⁻¹ in assay [9]; 0.000278 s⁻¹ in [10]. Also, the on-rate constant (kon) came out at 6090 M⁻¹ s⁻¹ in assay [5]; 4400 M⁻¹ s⁻¹ in assay [6]; 4350 M⁻¹ s⁻¹ in assay [7]; 6990 M⁻¹ s⁻¹ in assay [8]; 3320 M⁻¹ s⁻¹ in assay [9]; 7870 M⁻¹ s⁻¹ in assay [10].
In the case of b12 IgG (antibody), the IC50 Titers (TZM.bl cells, ug/ml) in assay [1] and in [2] was over 50 µg/mL each time.
With “sCD4 (soluble CD4) (from UniProt P01730 26-208) (receptor)”, the IC50 Titers (TZM.bl cells, ug/ml) in assay [1] was 48.7 µg/mL; in assay [2] it was over 50 µg/mL.
